Source: article PMC9278091, “ATP‐independent molecular chaperone activity generated under reducing conditions” (Protein Science : A Publication of the Protein Society, 2022)
Positions count from the first letter of the chain named. Names may count otherwise. “And” between values parts separate entries of the source, which are not always exact repeats. Identical values can stand only once.

B1: Bri2 BRICHOS domain (residues 113-231 of full-length human Bri2), wild type (domain or fragment, UniProt Q9Y287 113-231, looked up)
chain: QTIEENIKIFEEEEVEFISVPVPEFADSDPANIVHDFNKKLTAYLDLNLDKCYVIPLNTSIVMPPRNLLELLINIKAGTYLPQSYLIHEHMVITDRIENIDHLGFFIYRLCHDKETYKL
notes: Bri2 (integral membrane protein 2B), human, BRICHOS domain, residues 113-231 of full-length human Bri2; In the monomer Cys164 and Cys223 form an intramolecular disulfide; dimers and oligomers have intermolecular disulfides; also called Bri2 BRICHOS monomers; Bri2 BRICHOS dimers; source: E. coli, expressed and purified as previously described (monomer, dimer and oligomer species isolated)
B2: NT*-Bri2 BRICHOScys mutant C164S (NT*-Bri2 BRICHOScys 223-223 dimer) (domain or fragment, human, UniProt Q9Y287 113-231, looked up)
chain: B1 chain with C52S
modifications: intermolecular Cys223-Cys223 homodisulfide
notes: Bri2 (integral membrane protein 2B), human, BRICHOS domain, residues 113-231 of full-length human Bri2, C164S; NT* fusion kept as a means to tell the species apart by size; also called Cys223 dimers; source: E. coli, dimer fraction purified with NT* solubility tag
B3: NT*-Bri2 BRICHOScys mutant C223S (NT*-Bri2 BRICHOScys 164-164 dimer) (domain or fragment, human, UniProt Q9Y287 113-231, looked up)
chain: B1 chain with C111S
modifications: intermolecular Cys164-Cys164 homodisulfide
notes: Bri2 (integral membrane protein 2B), human, BRICHOS domain, residues 113-231 of full-length human Bri2, C223S; NT* fusion kept as a means to tell the species apart by size; also called Cys164 dimers; source: E. coli, dimer fraction purified with NT* solubility tag
B4: Bri2 BRICHOScys mutant C164S without NT* tag (Cys223-Cys223 dimer) (domain or fragment, human, UniProt Q9Y287 113-231, looked up)
chain: B1 chain with C52S
modifications: intermolecular Cys223-Cys223 homodisulfide
notes: Bri2 (integral membrane protein 2B), human, BRICHOS domain, residues 113-231 of full-length human Bri2, C164S; also called Cys223 dimers; source: E. coli, dimer fraction purified without NT* solubility tag
B5: Bri2 BRICHOS Thr to Trp (T206W) mutant (domain or fragment, human, UniProt Q9Y287 113-231, looked up)
chain: B1 chain with T94W
notes: Bri2 (integral membrane protein 2B), human, BRICHOS domain, residues 113-231 of full-length human Bri2, T206W; also called Thr to Trp Bri2 BRICHOS mutant; source: E. coli, expressed and purified as previously described

Tests used:
[1] = molecular target: the molecule itself; assay: SEC; Bri2 BRICHOS monomers, non-incubated or incubated at 37°C without reductant; 20 mM phosphate buffer, 0.2 mM EDTA, pH 8; monomer to dimers and tetramers
[2] = molecular target: the molecule itself; assay: non-reducing SDS-PAGE and Western blot; dimer fractions of the NT*-Bri2 BRICHOScys mutants under non-reducing conditions
[3] = molecular target: B2; assay: non-reducing SDS-PAGE and Western blot; dimer fractions of Bri2 BRICHOScys mutants with or without NT* mixed 1:1 at 10 μM final protein, 20 mM phosphate buffer pH 8, 0.2 mM EDTA, 0.02% NaN3, 2.5x thrombin inhibitor, 37°C overnight; mixed disulfide band; details: both partners purified
[4] = molecular target: the molecule itself; assay: other fluorescence titration; apparent; tryptophan fluorescence emission change upon dimer formation of the T206W mutant, excitation 280 nm, emission 300-400 nm, 96 well plate; single exponential fit; monomer to dimer/assembly

B1
stoichiometry N [1]: 2 and 4

B2
binding result [2]: binds

B3
binding result [2]: binds

B4
binding result [3]: binds

B5
Kd [4]: 1000 ± 200 nM
